Experimental data from paper PMC3335016, “Analysis of the Nse3/MAGE-Binding Domain of the Nse4/EID Family Proteins” (PLoS ONE, 2012).

Legend:
Experiment in all cases: ELISA; PEPSCAN ELISA; biotinylated EID2 peptides (400 nM) on streptavidin-coated plates; His-S-MAGEC2(129-339) 200–400 nM, 4°C overnight; anti-His detection
Conditions in all cases: both partners purified
EID2 peptide #1 (Q197A) = molecular target: T1, EID2 peptide #1 (Q197A) (human, Q197A (stands in the printed letters), biotin, linked via the SGSG spacer)
T1 construct: source: synthetic peptide (Mimotopes)
T1 peptide: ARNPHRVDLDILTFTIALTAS

EID2 peptide #2 (R198A) = molecular target: T2, EID2 peptide #2 (R198A) (human, R198A (stands in the printed letters), biotin, linked via the SGSG spacer)
T2 construct: source: synthetic peptide (Mimotopes)
T2 peptide: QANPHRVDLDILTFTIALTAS

EID2 peptide #6 (R202A) = molecular target: T3, EID2 peptide #6 (R202A) (human, R202A (stands in the printed letters), biotin, linked via the SGSG spacer)
T3 construct: source: synthetic peptide (Mimotopes)
T3 peptide: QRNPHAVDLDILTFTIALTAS

EID2 peptide #9 (L205A) = molecular target: T4, EID2 peptide #9 (L205A) (human, L205A (stands in the printed letters), biotin, linked via the SGSG spacer)
T4 construct: source: synthetic peptide (Mimotopes)
T4 peptide: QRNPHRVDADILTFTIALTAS

EID2 peptide #10 (D206A) = molecular target: T5, EID2 peptide #10 (D206A) (human, D206A (stands in the printed letters), biotin, linked via the SGSG spacer)
T5 construct: source: synthetic peptide (Mimotopes)
T5 peptide: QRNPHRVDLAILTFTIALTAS

EID2 peptide #11 (I207A) = molecular target: T6, EID2 peptide #11 (I207A) (human, I207A (stands in the printed letters), biotin, linked via the SGSG spacer)
T6 construct: source: synthetic peptide (Mimotopes)
T6 peptide: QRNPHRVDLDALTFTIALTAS

EID2 peptide #12 (L208A) = molecular target: T7, EID2 peptide #12 (L208A) (human, L208A (stands in the printed letters), biotin, linked via the SGSG spacer)
T7 construct: source: synthetic peptide (Mimotopes)
T7 peptide: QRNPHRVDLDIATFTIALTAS

EID2 peptide #14 (F210A) = molecular target: T8, EID2 peptide #14 (F210A) (human, F210A (stands in the printed letters), biotin, linked via the SGSG spacer)
T8 construct: source: synthetic peptide (Mimotopes)
T8 peptide: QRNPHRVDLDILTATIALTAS

EID2 peptide #16 (I212A) = molecular target: T9, EID2 peptide #16 (I212A) (human, I212A (stands in the printed letters), biotin, linked via the SGSG spacer)
T9 construct: source: synthetic peptide (Mimotopes)
T9 peptide: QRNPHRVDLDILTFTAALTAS

EID2 peptide #17 (L214A) = molecular target: T10, EID2 peptide #17 (L214A) (human, L214A (stands in the printed letters), biotin, linked via the SGSG spacer)
T10 construct: source: synthetic peptide (Mimotopes)
T10 peptide: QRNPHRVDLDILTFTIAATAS

EID2 peptide #18 (T215A) = molecular target: T11, EID2 peptide #18 (T215A) (human, T215A (stands in the printed letters), biotin, linked via the SGSG spacer)
T11 construct: source: synthetic peptide (Mimotopes)
T11 peptide: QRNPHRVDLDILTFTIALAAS

EID2 peptide #19 (S217A) = molecular target: T12, EID2 peptide #19 (S217A) (human, S217A (stands in the printed letters), biotin, linked via the SGSG spacer)
T12 construct: source: synthetic peptide (Mimotopes)
T12 peptide: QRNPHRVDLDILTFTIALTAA

percent of wt binding affinity (EID2 peptide #1 (Q197A)): ~30 % of wt | percent of WT affinity (EID2 peptide #2 (R198A)): < 20 % of WT affinity | percent of WT affinity (EID2 peptide #6 (R202A)): < 20 % of WT affinity | percent of wt binding affinity (EID2 peptide #9 (L205A)): ~30 % of wt | percent of wt binding affinity (EID2 peptide #10 (D206A)): ~30 % of wt | percent of wt binding affinity (EID2 peptide #11 (I207A)): ~30 % of wt | percent of wt binding affinity (EID2 peptide #12 (L208A)): ~30 % of wt | percent of WT affinity (EID2 peptide #14 (F210A)): < 20 % of WT affinity | percent of WT affinity (EID2 peptide #16 (I212A)): < 20 % of WT affinity | percent of WT affinity (EID2 peptide #17 (L214A)): < 20 % of WT affinity | percent of wt binding affinity (EID2 peptide #18 (T215A)): ~30 % of wt | percent of wt binding affinity (EID2 peptide #19 (S217A)): ~30 % of wt
B1: His-S-MAGEC2(129-339) (domain or fragment, human, UniProt Q9UBF1 129-339, looked up)
chain: GLPDSESSFTYTLDEKVAELVEFLLLKYEAEEPVTEAEMLMIVIKYKDYFPVILKRAREFMELLFGLALIEVGPDHFCVFANTVGLTDEGSDDEGMPENSLLIIILSVIFIKGNCASEEVIWEVLNAVGVYAGREHFVYGEPRELLTKVWVQGHYLEYREVPHSSPPYYEFLWGPRAHSESIKKKVLEFLAKLNNTVPSSFPSWYKDALKD
notes: source: E. coli C41, purified (His-TRAP column, FPLC)
